Reference: patent US20170306048A1 (SORRENTO THERAPEUTICS, published 2017)
Several values for one entry are separate records, joined by “and”; a condition that tells them apart may be missing. Equal entries are not always repeated.

Columns and labels:
[1] = biological target: T1, human STAT3, endogenous, in human cell lines (U251, MDA-MB-468, HeLa, MCF-10A, MCF-7, COLO205) (human, UniProt P40763 2-770); assay: flow cytometry on PFA-fixed, methanol-permeabilised MDA-MB-468 cells, PE anti-human IgG, MFI (FL-2)
T1 construct: whole, on cells; also called cellular antigens
T1 sequence (P40763 2-770): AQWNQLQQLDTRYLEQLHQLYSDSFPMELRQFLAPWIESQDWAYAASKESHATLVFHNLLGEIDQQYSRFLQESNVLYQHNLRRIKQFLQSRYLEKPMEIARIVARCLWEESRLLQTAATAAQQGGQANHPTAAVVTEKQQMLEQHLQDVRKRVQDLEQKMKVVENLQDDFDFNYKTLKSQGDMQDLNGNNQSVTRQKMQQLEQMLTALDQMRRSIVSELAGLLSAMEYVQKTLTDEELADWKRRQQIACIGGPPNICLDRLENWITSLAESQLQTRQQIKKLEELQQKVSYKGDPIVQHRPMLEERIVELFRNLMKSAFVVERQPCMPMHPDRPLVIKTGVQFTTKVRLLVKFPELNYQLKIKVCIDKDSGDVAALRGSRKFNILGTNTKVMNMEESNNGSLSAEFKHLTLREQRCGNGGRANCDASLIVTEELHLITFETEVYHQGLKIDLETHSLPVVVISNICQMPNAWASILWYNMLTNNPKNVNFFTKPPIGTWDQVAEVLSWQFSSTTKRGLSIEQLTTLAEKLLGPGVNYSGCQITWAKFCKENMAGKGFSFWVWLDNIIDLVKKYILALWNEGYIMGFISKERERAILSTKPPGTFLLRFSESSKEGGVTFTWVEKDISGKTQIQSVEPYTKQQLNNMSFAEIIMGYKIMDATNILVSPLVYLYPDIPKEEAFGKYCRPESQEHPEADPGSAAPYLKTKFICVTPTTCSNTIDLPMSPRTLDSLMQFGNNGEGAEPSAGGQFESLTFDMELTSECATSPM
Procedure: (§1) Next, the binding of the candidate anti-STAT3 antibodies to cellular targets was tested in cell binding assays using MDA-MB-435 breast cancer cells and U251 cells. The cells were seeded overnight in a 96 well plate, then fixed with PFA and permeabilized with methanol. Cells were incubated with serial dilutions of the anti-STAT3 antibody candidates ST1A5, ST3G12 and ST5G12 for one hour and 30 minutes. Following incubation, the cells were washed and incubated for 30 minutes with phycoerythrin (PE) conjugated anti-human IgG. Fluorescence was measured on an Intellicyte high-throughput flow cytometry analyzer. […] Bevacizumab (Avastin), a monoclonal antibody that inhibits vascular endothelial growth factor A (VEGF-A) was used as a negative control.

[2] = biological target: T2, recombinant human STAT3 protein (human, UniProt P40763 1-770, limits assumed); assay: ELISA on recombinant human STAT3 protein, absorbance at 450
T2 construct: also called recombinant human STAT3 proteins; antigen
T2 sequence (P40763 whole entry): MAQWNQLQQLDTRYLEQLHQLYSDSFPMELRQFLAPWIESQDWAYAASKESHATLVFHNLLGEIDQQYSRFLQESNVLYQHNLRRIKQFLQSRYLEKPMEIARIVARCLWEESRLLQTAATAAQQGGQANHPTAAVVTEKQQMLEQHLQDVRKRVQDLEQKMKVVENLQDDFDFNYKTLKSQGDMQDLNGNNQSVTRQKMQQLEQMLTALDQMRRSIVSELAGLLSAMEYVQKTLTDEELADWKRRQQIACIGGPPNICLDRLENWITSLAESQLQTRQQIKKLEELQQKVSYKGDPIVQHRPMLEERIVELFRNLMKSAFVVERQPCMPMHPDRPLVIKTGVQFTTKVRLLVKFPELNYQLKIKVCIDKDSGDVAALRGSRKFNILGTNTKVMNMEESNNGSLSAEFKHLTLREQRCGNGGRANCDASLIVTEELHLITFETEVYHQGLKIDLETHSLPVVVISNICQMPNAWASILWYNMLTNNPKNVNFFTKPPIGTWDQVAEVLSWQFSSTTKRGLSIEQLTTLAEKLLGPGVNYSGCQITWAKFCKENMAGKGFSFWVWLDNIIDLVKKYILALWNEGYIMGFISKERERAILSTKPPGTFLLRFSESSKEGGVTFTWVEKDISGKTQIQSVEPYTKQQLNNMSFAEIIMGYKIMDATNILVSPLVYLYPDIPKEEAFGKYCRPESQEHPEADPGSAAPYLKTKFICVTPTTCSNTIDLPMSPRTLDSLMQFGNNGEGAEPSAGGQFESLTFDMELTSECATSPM

[3] = biological target: T2, recombinant human STAT3 protein; assay: STAT3 binding ELISA, Hu-IgG-Fab detection (title on the sheet), OD 450 nm, ng/ml is the unit of the x axis
[4] = biological target: T1, human STAT3, endogenous, in human cell …; assay: flow cytometry on PFA-fixed, methanol-permeabilised U251 cells, PE anti-human IgG, MFI (FL-2)
Procedure: as §1

human IgG [5] = assay: ELISA in Superblock buffer, OD 450 nm; partner not named on the sheet, legend paragraph 53 says 'to human IgG', ng/ml is the unit of the x axis
[6] = biological target: T1, human STAT3, endogenous, in human cell …; assay: flow cytometry (HTFC) on permeabilised U251 cells, PE anti-human IgG
Procedure: After 45 minutes at room temperature, cells were washed twice and incubated with phycoerythrin (PE) conjugated-anti-human IgG for 20 minutes at room temperature in the dark. Cells were then washed and analyzed by high throughput flow cytometry (HTFC). The results are shown in FIG. 4 for assessment of antibody binding to U251 cells.

[7] = biological target: T3, mouse STAT3, endogenous, in mouse cell lines CT-26 and MC-38 (mouse, UniProt P42227 2-770); assay: flow cytometry on fixed, permeabilised mouse CT-26 and MC-38 cells, PE anti-human IgG; antibody concentration not given
T3 construct: whole, on cells; Intracellular protein
T3 sequence (P42227 2-770): as the sequence (P40763 2-770) above, with E759D counted along it

[8] = biological target: T4, recombinant human STAT3-GST (human, UniProt P40763 1-770, limits assumed); assay: SPR (Biacore T200), antibody captured on anti-human Fc, STAT3-GST as analyte, 1:1 model
T4 construct: Analyte in the Biacore assay; not shown: GST (glutathione S-transferase) tag
T4 sequence (P40763 whole entry): as the sequence (P40763 whole entry) above
Procedure: Anti-human Fc antibody (GE, BR-1008-39) was immobilized on a CM5 sensor chip to approximately 1000 RU using standard NHS/EDC coupling methodology. Antibodies (approximately 10 ug/ml) were captured for 60 seconds at a flow rate of 10 ul/min Recombinant human STAT3-GST was serially diluted 2-fold into running buffer (HBS-EP+, starting from […]). All measurements were conducted at a flow rate of 30 ul/min Surfaces were regenerated with 3M MgCl₂ (from human antibody kit) for 60 seconds. A 1:1 (Langmuir) binding model was used to fit the data.

[9] = biological target: T2, recombinant human STAT3 protein; assay: ELISA in Superblock buffer, OD 450 nm; antigen named neither on the sheet nor in legend paragraph 54, taken as the antibody's antigen STAT3, ng/ml is the unit of the x axis
[10] = biological target: T2, recombinant human STAT3 protein; assay: ELISA on recombinant human STAT3 protein, Abs 450
[11] = biological target: T2, recombinant human STAT3 protein; assay: ELISA in Superblock buffer, OD 450 nm; antigen named neither on the sheet nor in legend paragraph 54, taken as the antibody's antigen STAT3; unit from the x axis
human IgG [12] = assay: ELISA in Superblock buffer, OD 450 nm; partner not named on the sheet, legend paragraph 53 says 'to human IgG'; column taken as the curve ST3G12-PS superblock; unit from the x axis

EC50 (read off the curve) [1]	EC50 (read off the curve) [2]	EC50 [3]	EC50 (read off the curve) [4]	EC50 (human IgG [5])	EC50 (read off the curve) [6]	binding result [7]	Kd [8]	koff [8]	kon [8]	EC50 [9]	EC50 (read off the curve) [10]	EC50 [11]	EC50 (human IgG [12])	Binder
~5 nM	–	–	–	–	–	–	–	–	–	–	–	–	–	anti-STAT3 antibody ST1A5 (antibody, V domains shown, Fully human monoclonal antibody detected with anti-human IgG; also called Ab#2) VH: not shown VL: QSVLTQPPSVSKGLRQTATLTCTGNSNNVGNEGAAWLQQHQGHPPKLLSYRNFNRPSGISERFSASRSGNTASLTITGLQPEDEADYYCSAWDSSLSAWVFGGGTKLTVL
–	~0.007 mg/L	0.155 mg/L	~4 nM	0.122 mg/L	~10 nM	binds	5.39 nM	0.000322 s⁻¹	59700 M⁻¹ s⁻¹	0.0257 mg/L	~0.06 mg/L	–	–	anti-STAT3 antibody ST3G12 (naked / unmodified) (antibody, V domains shown, Fully human monoclonal antibody, detected with anti-human IgG and captured with anti-human Fc; also called Ab#1; ST3G12-unmodified) VH: QVQLVQSGAEVKKPGASVKVSCKASGYTFTSYYMHWVRQAPGQGLEWMGIINPSGGSTSYAQKFQGRVTMTRDTSTSTVYMELSSLRSEDTAVYYCARSDYVHSFDIWGQGTMVTVSS VL: QPVLTQPPSASALLGASIKLTCTLSSEHSTYTVEWYQQRPGRSPQYIMNVKSDGSYNKGDGIPDRFMGSSSGADRYLTFSNLQSDDEAEYHCGESHRIDGQVGVVFGGGTKLTVL
–	~0.007 mg/L	0.153 mg/L	–	–	–	–	0.222 nM	0.00011 s⁻¹	494000 M⁻¹ s⁻¹	–	~0.06 mg/L and ~0.1 mg/L	0.0643 mg/L	0.186 mg/L	ST3G12-PS antibody conjugate (compound 901) (antibody, V domains shown, also called PS-ST3G12; Anti-STAT3-PS) VH: QVQLVQSGAEVKKPGASVKVSCKASGYTFTSYYMHWVRQAPGQGLEWMGIINPSGGSTSYAQKFQGRVTMTRDTSTSTVYMELSSLRSEDTAVYYCARSDYVHSFDIWGQGTMVTVSS VL: QPVLTQPPSASALLGASIKLTCTLSSEHSTYTVEWYQQRPGRSPQYIMNVKSDGSYNKGDGIPDRFMGSSSGADRYLTFSNLQSDDEAEYHCGESHRIDGQVGVVFGGGTKLTVL
